Assay: yeast display, Sf9 membrane polyspecificity reagent, FACS + sequencing; frameworks hold sequencing errors
Outline: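 Synthetic nanobody libraries on Saccharomyces cerevisiae BJ5465 were galactose-induced for 36–48 hours, stained 1 hour at 4 °C with 10% biotinylated, detergent-solubilized Sf9 membrane reagent and enriched on streptavidin microbeads. FACS then separated cells into low and high (top ~1%) gates by anti-HA (expression) and streptavidin (reagent binding) fluorescence. Genes were colony-PCR amplified, MiSeq 2 × 250 sequenced and CDR-length filtered. A clone's polyreactivity label is that of its gate of origin.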

Row | Sequence | polyreactivity (PSR sort gate)
1 | QVQLVESGGGLVQAGGSLRLSCAASGRTFPRYGMGWYRQAPVKERELVATIRTGGRTNYADSVKGRFTISRDNAKNTVYVLMNSQKPEDTAVYYCATDSSKHPYSPTLLKFDYWGQGTQVTVSS | low polyreactivity
2 | QVQLVESGGGIVQAGGSLRLSCAASGRIFRGYGMGWYRQAPGKERELVAAITSRGGSTYYADSVKGRFTISRDNAKNTVYLQMNSLKPEDTAVYYCAAVGVGYPGHKYYYWGQGTQVTVSS | high polyreactivity
3 | QVQLVESGGGLVQAGGSLRLSCAASGTNFRYYTMGWYRQAPGKERELVAAITYSGGTTYYADSVKGRFTISRDNAKNTVYLQMNSLKPEDTAVYYCAATFQANYFSGYYTVYLSDYWGQGTQVTVSS | low polyreactivity
4 | QVQLVESGGGLVQAGGSLRLSCAASGSTFAVNAMGWYRQAPGKERELVAAITSGGNTYADSVKGRFTISRDNAKNTVYLQMNSLKPEDTAVYYCAAALTEVVYWIYDYWGQGTQVTVSS | low polyreactivity
5 | QVQLVESGGGLVQSGGSLRLSCAASGSTFSINAMGWYRQAPGKERELVAAITWRGVRTYYADSVKGRFTITRDNAKNTVYFQMNSLKPEDTAVYYCAADVVVAGHPGFDYWGQGTQVTVSS | high polyreactivity
6 | QVQLVESGGGLVQAGGSLRLSCSASGSTFYYYAMGRYIQAPGKDRELVAAISSSGGTTYYADSVKGRFTISRDNAKNTVYLQMNSLKPEDTAVYYCAAQRYPSSLYQRFYYWGQGTQVTVSS | high polyreactivity
7 | QVQLVESGGCLVQAGGSLRLSCAASGLIFGDYAMGWYRPAPGKESELVAAITGSFTRTYYADSVKGSFTISRDNAKNTVYLQMNSLKPEDTAVYYCAADWYKRPPYVYWGQGTQVTLSS | low polyreactivity
8 | QVQLVESGGGLVQAGGSLRLSCAASGSISTYYAMGWYRQAPGKERELVAAISKSGGSTYYADSVKGRFTISRDNAKYTVYLQMNSLKPEDTEVYYCAARYKGRAFWMDYWGQGTQVTVSS | high polyreactivity
9 | QVQLVESGGGLVQAGGSLRLSCAASGIIFRGYAMGWYRLAPGKERELVAAINQDSGNTYYADSVKGRFTISRDNAKKTVYLQMNSLKPEDTAVYYCAASSRLNRWNYYAFDYWGQGTQVTVSS | high polyreactivity
10 | QVQLVESGGGLVQAGGSLRLSCAASGRIYPYAMGWYRQAPGKERELVAAITSRGGTTYYADSVKGRFTISRDNAKNTVYLQMNSLKPEDSAVYYCAADQHIRVSWYLQMYYWGQGTQVTVSS | low polyreactivity
11 | QVQLVESGGGLVQAGGSLRVICAASGSTFLENAMGWYRQAPGKERELVAAISRSGARTYYADSVKGRFTISRDNAKNTVYLQMNSLKPEDTAVYYCAASHGKNKASGPMDYWGQGTQVTVSS | high polyreactivity
12 | QVQLVESGGGLVQAGGSLRLSCAASGSIFDGYAMGWDRQAPGKEREFVATITVSGGRTYYADSVKGRFTISRDNAKTTVYLQRNSLKPEDTAVYYCAARKVPLIRSSTVRQYYYWGQGTQVTVSS | high polyreactivity
13 | QVQLVESGGGLVQAGGSLRLSCAASGRTFYIYAMGWYRQAPGKERELVAAITYGGGRTFYADSVKGRFTISRDYAKTTVYLQMISLKPEDTAVYYCAATDRGKRSTYDYWGQGTQVTVSS | high polyreactivity
14 | QVQLLESGGGLVKAGGSLRLTCADSGRTLYRYAMGWYRQAPGKERELVAAINQSGGRTYYADSVKGRFTISRDNAKNTVYLQMNSLKPDDTAVYYCNTASSRAFLTHGRYGRSDYWGQGTQVTVSS | high polyreactivity
15 | QVQLVESGGGLVQAGGSLRLSCAASGIIFYSYAMGWYRQAPGKERELVAAISWSGGSTYYADSVKGRFTISRDNAKNTVYLQMNSLKPEDTAVYYCAKDGYPYLSWLRSAHYDYWGQGTQVTVSS | low polyreactivity
16 | QVQLVESGGGLVQAGGSLRLSCAASGITFVRYAMGWYRQAPGKERELVAAINFSGGNTYYADSVKGRFTISRDNAKNTVYLQMNSLKPEDTAVYYCAAKRQYKRSRMYYWGQGTQVTVSS | high polyreactivity
17 | QVQLVESGGGLVQAGGSLRLSCAASGLTFGWYTMGWYRQAPGKERELVAAISWSGGSTYYADSVKGRFTISRDNAKNTVYLQMNSLKPEDTAVYYCAADQSTVLDVGSWGQGTQVTVSS | low polyreactivity
18 | QVQLVESGGGLVQAGGSLRVSCAASGFTFYVNAMGRYRQAPGKERELVAVISPSGGRTYYADSVKGRFTISRDNAKNTVYLQMNSLKPEDTAVYYCAAESGGYHWSTPYFDWLYYYWGQGTQVTVSS | low polyreactivity
19 | QVQLVESGGGLVQAGGSLRLSCAASGSIFYINDMGWYRQAPGKERELVASINSSGDSTYYADSVKGRFTISRDNAKNTVYLQMNSLKPEDTAVYYCAADDGYPIQEYDYWGQGTQVTVSS | low polyreactivity
20 | QVQLVESGGGLVQAGGSLRLSCAASGFTFRRYAMGWYRQAPGKERELVAAINKSGGSTYYADSVKGRFTISRDNAKNTVYLQMNSLKPEDTAVYYCAKPLTAYSGFDHWGQGTQVTVSS | high polyreactivity
21 | QVQLVESGGGLVQAGGSLRLSCAASGSTFSPYAMGWYRPAPGKERELVAAITSGGSTYYADSVKGRFTISRDNAKNTVYLQMNSLKPEDTAVYYCNVVYIRVRRYNYWGQGTQVTVSS | high polyreactivity
22 | QVQLVESGGGLVQAGGSLRLSCAASGRTFSVYTMGWYRQAPGKERELVAAISSTGRTNYADSVKGRFTISRDNAKNTVYLQMNSLKPEDTAVYYCNAGVRNSYTRQALVTAYYLYYYWGQGTQVTVSS | high polyreactivity

Row | Sequence | polyreactivity (PSR sort gate)
23 | QVQLVESGGGLVQAGGSLRLSCAASGSTFIFYAMGWYRQAPGKERELVAAITSSGGSTYYADSVKGRFTISRDNAKNTVYLQMNSLKPEDTAVYYCNTLAYTYGSKFGYWGQGTQVTVSS | low polyreactivity
24 | QVQLVESGGGLVQAGGSLRLSCAASGRIFYDYAMGWYRQAPGKERELVAAISKGGGSTYYADSVKGRFTISRDNAKNTVYFQMNSLKPEDTAVYYCASSTSHTTDTRYDYWGQGTQVTVSS | low polyreactivity
25 | QVQLVESGGGLVQAGGSLRLSCAASGSTFWYYAMGWYRQAPGKERELVAAITSSGSTYYADSVKGRFTISRDNAKNTVYLQMYSLKPEDTAVYYCAAEQWYGYASYDYWGQGTQVTVSS | high polyreactivity
26 | QVQLLESGGGLLQAGGSLRLSCAASGRIFKFNAMGWYRQAPGKERELVAAISKRGGSTYYADSVKGRFTISRDNAKNTVYLQMNSLNPEDTAVYYCAAPIYNGYASWQVYYWGQGTQVTVSS | high polyreactivity
27 | QVQLVESGGGLVQAGGSLRLSCAASGSIFIVYARGWYRPAPGRERELVATITSGGSTNYADSVKGRFTISRDNAKKTVYLQMNSLKPEDTAVYYCAKDLYYGDYYYWGLGTQVTVSS | low polyreactivity
28 | QVQLVESGGGLVQAGGSLRLSCAASGCTFGTYAMGWYRQAPGKERELVAAITDSTGNTYYADSVKGRFTISRDNAKNTVYLQMNSLKPEDTAVYYCALEYVYDYFWMDYWGQATQVTVSS | high polyreactivity
29 | QVQLVESGGGLVQAGGSLRLSCAASGINFDDYAMGWYRQAPGTERELVAAITWNGGRTYYADSVKGRFTISRDNAKNTVYLKMNSLKPEDTEVYYCAARITNPAKYNYWGQGTQVTVSS | high polyreactivity
30 | QVQLVESGGGLVQAGGSLRLSCAASGSTFDVYAMGWYRQATGKERELVAVINTSGTRTYYADSVKGRFTISRDNSKNTVYLQMISLKPEDTAVYYCNAGGHLEMNYWGEGTQVTVSS | low polyreactivity
31 | QVQLVESGGGLVQAGGSLRLSCAASGSIFQANAMGWYRQAPGKEWEFVAAINWSTGTTYYADSVKGRFTISRDNAKNTVYLQMNSLKPEDTAVYYCNASDQAKYDYWGQGTQVTVSS | low polyreactivity
32 | QVQLVESGGGLVQAGGSLRLSCAASGRTFGYNAMGWYRQAPVKERELVAAIRTIGDSTYYADSVKGRFTISRDNAKNTVYLQMNSLKPEDTAVFYCAARKLRSRYDYWGQGTQVTVSS | high polyreactivity
33 | QVQHVESGGGLVQAGGSLRLSCAASGRIFSANAMGWYRQAPGKERELVAAISGSGGSTFYADSVKGRFTISRDNAKNTVYLQMNSLKPEDTAVYYCAARRYRSGYYSFYYWGQGTQVTVSS | high polyreactivity
34 | QVQLVESGGGLVQAGGSLRLSCAASGNTFWYYAMGWYRQAPGKEREFVAAISRRGTTTYYADSVKWRFTISRDNAKNTVYLQMNSLKPEDTAVYYCAARRYVSVFRVSATGLDLGYWGQGTQVTVSS | high polyreactivity
35 | QVQLVESGGGLVQAGGSLRLSCAASGFIFPYYGMGWYRQAPGKERELVATISRSGGRTYYADSVKGRFTISRDNAKNTVYLQMNSLKPEDTAVYYCARTTPYFYVDWGGYDYWGQGTQVTVSS | high polyreactivity
36 | QVQLVESGGGLVQAGGSLRLSCAASGSIFKVNVMGWSRQAPGKERELVAAISRSGGNTYYADSVKGRFTISRDNAKNTVYLQMIILKPEDTGVYYCANDRRYYKAYDYWGQGTRVTVSS | low polyreactivity
37 | QVQLVESGGGLDQAGGSLRLSCAASGIIFLSYAMGRYRQAPGKERELVAAIRSRGDSTYYADSVKGRFTNSRDNAKNTVYLQMNSLKPEDTAVYYCNARQRRYPYGYWGQGTQVTVSS | high polyreactivity
38 | QVQLVESGGGLVQAGCSLRLSCAASGRTFAYYAMGWYRQAPGKERELVAAISSGGGSTYYADSVKGRFTISRDNAKNTVYLQMNSLKPEDTAVYYCAKERSYSRSGGTYYYWGQGTQVTVSS | high polyreactivity
39 | QVQLVESGGGLVQAGGSLRLSCAASGSTFSSYVMGWYRQAPGKERELVAAISSIGGSTYYADSVKGRFTISRDNAKNTVYLQMNSLKPEDTAVYYCAAEPPGSTYEGGYWGQGTQVTVSS | low polyreactivity
40 | QVQLVESGGGLVQAGGSLRLSCDPSGSIFYRNAMVWYRPAPGKERELVATITVNGGRTYYADSVKGRFTISRDNAKNTVYLQMNSLKPEDTAVYYCAKDVHRWYPYDYWGQGTQVTVSS | low polyreactivity
41 | QVQLVESGGGLVQAGGSLRLSCAASGIIFGVYAMGWYRQAPGKERELVAAIDGNGSSTYYADSVKGRFTISRDNAKNTVYLQMNSLKPEDTAVYYCAARPDYYLWHGYYTRRHYYWGQGTQVTVSA | low polyreactivity
42 | QVQLVESGGGLVQAGGSLRLSCAASGSIFAWYGMGWYRQAPGKERELVAAISTAGSTNYADSVKGRFTISRDNAKNSVYLQMNSLKPEDTAVYYCAKKSSWYYPERFDYWGQGTQVTVSS | low polyreactivity
43 | QVQLVESGGGLVQAGGSLRLSCAASGSTFQEYAMGWYRQAPGKERELVASIRWSGGRTYYADSVKGRFTISRDNAKNTVYLQMNSLKPEDTAVYYCNKVWVYAVTPSSWYKYGSWGQGTQVTVSS | low polyreactivity
